Reference: PMC6895276 (Nucleic Acids Research, 2019)

T1: WT MutS (Escherichia coli, UniProt P23909 1-853)
T1 sequence (looked up): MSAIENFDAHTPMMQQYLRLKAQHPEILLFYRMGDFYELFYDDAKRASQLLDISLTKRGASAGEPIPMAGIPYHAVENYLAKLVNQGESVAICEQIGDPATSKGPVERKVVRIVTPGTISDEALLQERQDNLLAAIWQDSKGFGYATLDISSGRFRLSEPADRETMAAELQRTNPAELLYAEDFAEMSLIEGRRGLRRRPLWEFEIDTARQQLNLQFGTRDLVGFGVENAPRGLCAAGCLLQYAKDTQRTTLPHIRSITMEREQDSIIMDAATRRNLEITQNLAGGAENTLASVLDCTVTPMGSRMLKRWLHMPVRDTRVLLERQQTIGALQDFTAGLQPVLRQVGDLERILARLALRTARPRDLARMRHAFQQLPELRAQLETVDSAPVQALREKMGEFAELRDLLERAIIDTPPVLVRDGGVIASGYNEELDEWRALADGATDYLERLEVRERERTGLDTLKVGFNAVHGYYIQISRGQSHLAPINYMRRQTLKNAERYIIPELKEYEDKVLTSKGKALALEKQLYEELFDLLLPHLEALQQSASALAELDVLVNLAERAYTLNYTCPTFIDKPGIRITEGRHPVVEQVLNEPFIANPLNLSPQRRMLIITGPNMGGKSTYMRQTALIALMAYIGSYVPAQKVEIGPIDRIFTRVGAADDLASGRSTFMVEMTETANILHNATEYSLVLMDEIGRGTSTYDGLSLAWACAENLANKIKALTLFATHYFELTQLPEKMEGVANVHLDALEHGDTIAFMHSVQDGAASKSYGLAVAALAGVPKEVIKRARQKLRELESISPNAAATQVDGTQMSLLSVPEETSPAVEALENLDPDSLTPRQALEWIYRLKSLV

B1: MutL WT (natural protein, UniProt P23367 1-615, looked up)
chain: MPIQVLPPQLANQIAAGEVVERPASVVKELVENSLDAGATRIDIDIERGGAKLIRIRDNGCGIKKDELALALARHATSKIASLDDLEAIISLGFRGEALASISSVSRLTLTSRTAEQQEAWQAYAEGRDMNVTVKPAAHPVGTTLEVLDLFYNTPARRKFLRTEKTEFNHIDEIIRRIALARFDVTINLSHNGKIVRQYRAVPEGGQKERRLGAICGTAFLEQALAIEWQHGDLTLRGWVADPNHTTPALAEIQYCYVNGRMMRDRLINHAIRQACEDKLGADQQPAFVLYLEIDPHQVDVNVHPAKHEVRFHQSRLVHDFIYQGVLSVLQQQLETPLPLDDEPQPAPRSIPENRVAAGRNHFAEPAAREPVAPRYTPAPASGSRPAAPWPNAQPGYQKQQGEVYRQLLQTPAPMQKLKAPEPQEPALAANSQSFGRVLTIVHSDCALLERDGNISLLSLPVAERWLRQAQLTPGEAPVCAQPLLIPLRLKVSAEEKSALEKAQSALAELGIDFQSDAQHVTIRAVPLPLRQQNLQILIPELIGYLAKQSVFEPGNIAQWIARNLMSEHAQWSMAQAITLLADVERLCPQLVKTPPGGLLQSVDLHPAIKALKDE

Assays:
Experiment in all cases: SPR
[1] = target: MutS STAB3 (Escherichia coli) (UniProt P23909)
[2] = target: MutS STAB1 (Escherichia coli) (UniProt P23909)
[3] = target: MutS STAB4 (Escherichia coli) (UniProt P23909)
[4] = target: MutS STAB2 (Escherichia coli) (UniProt P23909)
[5] = target: T1, WT MutS

Kd [1] | Kd [2] | Kd [3] | Kd [4] | Kd [5] | Molecule
17 nM | 18 nM | 11 nM | 16 nM |  | MutL WT (from UniProt P23367 1-615) (natural protein)
 |  |  |  | 15 nM | B1
